Assay results from US20210115143A1.

Molecular target: hPD-L1-Fc fusion protein (made in the filing, Example 1) (human) (UniProt Q9NZQ7)
Assay: SPR, Biacore X100, hPD-L1-Fc on CM5 chip, antibody in solution, 25 C

Sequence of hPD-L1-Fc fusion protein (made in the filing, Example 1) (human) (Q9NZQ7 19-238 limits assumed): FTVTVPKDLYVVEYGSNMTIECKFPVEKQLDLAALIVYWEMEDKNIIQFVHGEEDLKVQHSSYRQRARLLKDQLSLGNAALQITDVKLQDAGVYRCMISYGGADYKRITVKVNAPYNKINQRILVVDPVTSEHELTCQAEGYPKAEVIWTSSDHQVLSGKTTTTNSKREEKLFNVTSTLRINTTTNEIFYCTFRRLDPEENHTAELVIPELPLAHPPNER

B1: B50-6 mAb (anti-hPD-L1, human IgG1, lambda) (antibody, part only; not given: human IgG1 and lambda constants, part only)
heavy, part: QVQLQQSGPGLVKPSQTLSLTCAISGDSVSSTKAAWYWIRQSPSRGLEWLGRTYFRSKWYNDYADSVKSRLTINPDTSKNQFSLQLKSVSPEDTAVYYCARGQYTAFDIWGQGTMVTVSS
light, part: QVQLVQSGAEVKKPASSVKVSCTASGGSFSTYAISWVRQAPGQGLEWMGGIIPIFGTTKYAQRFQGRVTITADESTTTAYMELSSLISDDTALYYCTTSRGFSYGWFDYWGQGTLVTVSS
B1 gave a Kd of 81.9 nM, a koff of 0.0137 s⁻¹ and a kon of 167000 M⁻¹ s⁻¹.
